± gives the uncertainty stated by the source.
Assay: self-splicing fitness, log relative to wild type (ln ratio); higher = more splicing; Tetrahymena group I intron in knt gene, E. coli kanamycin selection, DiMSum; sequences stand for … in CUCUCU…GGAGGGAAAAGUUAUCAGGCAUGCACCUGGUAGCUAGUCUUUAAACCAAUAGAUUGCAUCGGUUUAAAAGGCAAGACCGUCAAAUUGCGGGAAAGGGGUCAACAGCCGUUCAGUACCAAGUCUCAGGGGAAACUUUGAGAUGGCCUUGCAAAGGGUAUGGUAAUAAGCUGACGGACAUGGUCCUAACCACGCAGCCAAGUCCUAAGUCAACAGAUCUUCUGUUGAUAUGGAUGCAGUUCACAGACUAAAUGUCGGUCGGGGAAGAUGUAUUCUUCUCAUAAGAUAUAGUCGGACCUCUCCUUAAUGGGAGCUAGCGGAUGAAGUGAUGCAACACUGGAGCCGCUGGGAACUAAUUUGUAUGCGAAAGUAUAUUGAUUAGUUUUGGAGUACUCGUGGUCG
Method in brief: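 Library with all eight P1ex-region intron nucleotides randomised, intron inside the knt kanamycin-resistance gene on pET-22b(+), in E. coli BL21(DE3). Cells grew overnight at 37°C or 30°C on LB agar with or without 25 μg/mL kanamycin (plus 100 μg/mL carbenicillin, 50 μM IPTG, 0.2% rhamnose), in six replicate transformations. Pooled colonies were amplicon-sequenced on Illumina HiSeq 2500. DiMSum fitness is the error-weighted combination of wild-type-normalised replicate fold changes, kanamycin versus none.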

| Sequence | self-splicing fitness (ln) (30 °C) | self-splicing fitness (ln) (37 °C) |
| --- | --- | --- |
| CGCAAGCAAUAUUACGAUCC | -1.71 ± 0.12 | -1.36 ± 0.19 |
| CUGCAGCAAUAUUACGCACU | -3.45 ± 0.2 | -0.783 ± 0.17 |
| AGUCAGCAAUAUUACGGGAU | -1.04 ± 0.079 | -1.51 ± 0.15 |
| GUUGAGCAAUAUUACGAUAA | -3.96 ± 0.46 | -1.94 ± 0.26 |
| CCCAAGCAAUAUUACGCCCU | -3.14 ± 0.43 | – |
| AAAAAGCAAUAUUACGUAUC | -2.37 ± 0.089 | -1.5 ± 0.12 |
| CAGUAGCAAUAUUACGCAGC | -3.05 ± 0.34 | -1.3 ± 0.33 |
| CGGAAGCAAUAUUACGGAAC | -2.23 ± 0.34 | – |
| GAAAAGCAAUAUUACGAAAU | -1.74 ± 0.14 | -1.09 ± 0.16 |
| ACGCAGCAAUAUUACGACUU | -0.543 ± 0.077 | 0.0674 ± 0.09 |
| GCCAAGCAAUAUUACGACAA | -3.73 ± 0.38 | -3.04 ± 0.26 |
| UUGAAGCAAUAUUACGCCGU | -1.33 ± 0.15 | -0.893 ± 0.18 |
| ACACAGCAAUAUUACGCAUU | -2.47 ± 0.081 | -1.5 ± 0.087 |
| UCAAAGCAAUAUUACGCUGU | -3.7 ± 0.21 | -2.82 ± 0.18 |
| GACGAGCAAUAUUACGGGAA | -3.41 ± 0.31 | -2.34 ± 0.19 |
| GAGAAGCAAUAUUACGGGGA | -2.34 ± 0.22 | -2.67 ± 0.28 |
| GGACAGCAAUAUUACGUUCA | -0.478 ± 0.086 | -0.434 ± 0.1 |
| AUGCAGCAAUAUUACGCUGU | -3.46 ± 0.21 | -2.63 ± 0.45 |
| AGCAAGCAAUAUUACGAGUG | -1.15 ± 0.051 | -0.683 ± 0.06 |
| UUGAAGCAAUAUUACGUAUC | – | -1.93 ± 0.42 |
| AAGAAGCAAUAUUACGAUUG | -2.85 ± 0.26 | -1.78 ± 0.19 |
| GACUAGCAAUAUUACGUAGC | -2.47 ± 0.11 | -1.4 ± 0.1 |
| UAGAAGCAAUAUUACGAUUC | -2.82 ± 0.17 | -2.06 ± 0.21 |
| AAGAAGCAAUAUUACGUACA | -0.642 ± 0.1 | -0.0821 ± 0.12 |
| UAGUAGCAAUAUUACGUGAA | -3.8 ± 0.35 | -1.07 ± 0.18 |
| AAGCAGCAAUAUUACGUGGU | -4.16 ± 0.2 | -1.27 ± 0.11 |

| Sequence | self-splicing fitness (ln) (30 °C) | self-splicing fitness (ln) (37 °C) |
| --- | --- | --- |
| UACUAGCAAUAUUACGUGAU | -3.07 ± 0.11 | -1.17 ± 0.12 |
| GCCCAGCAAUAUUACGAACC | -1.02 ± 0.15 | 0.156 ± 0.15 |
| ACACAGCAAUAUUACGUUCG | -0.803 ± 0.05 | -1.13 ± 0.064 |
| AGAUAGCAAUAUUACGUGCC | -0.685 ± 0.2 | -0.528 ± 0.22 |
| AGGUAGCAAUAUUACGUGCU | -0.841 ± 0.014 | -0.391 ± 0.033 |
| GUUCAGCAAUAUUACGCAUG | -0.538 ± 0.1 | -1.02 ± 0.13 |
| GUUAAGCAAUAUUACGCGUU | -0.757 ± 0.08 | -1.07 ± 0.12 |
| CAGGAGCAAUAUUACGCGAA | -1.4 ± 0.17 | -2.07 ± 0.23 |
| GAUUAGCAAUAUUACGCUCA | -0.572 ± 0.12 | -0.182 ± 0.17 |
| UGACAGCAAUAUUACGACAA | -0.197 ± 0.087 | 0.15 ± 0.1 |
| ACCGAGCAAUAUUACGACCG | -2.92 ± 0.22 | -1.52 ± 0.21 |
| ACUUAGCAAUAUUACGAGGA | -1.87 ± 0.16 | -1.66 ± 0.23 |
| GAUAAGCAAUAUUACGGCCC | -0.576 ± 0.19 | -0.0157 ± 0.28 |
| CACUAGCAAUAUUACGCGAA | -2.72 ± 0.19 | -2.74 ± 0.2 |
| UCGAAGCAAUAUUACGCUGG | -1.85 ± 0.13 | -2.04 ± 0.16 |
| CAGCAGCAAUAUUACGUCCU | -2.31 ± 0.17 | -0.614 ± 0.14 |
| UCCGAGCAAUAUUACGGUGC | -3.26 ± 0.19 | -2.62 ± 0.22 |
| UUCCAGCAAUAUUACGGUGA | -0.226 ± 0.061 | 0.234 ± 0.077 |
| AAUGAGCAAUAUUACGGAGC | -3.43 ± 0.25 | -1.03 ± 0.44 |
| CAGGAGCAAUAUUACGUACG | -1.06 ± 0.088 | 0.312 ± 0.13 |
| CUACAGCAAUAUUACGUAUU | -4.19 ± 0.2 | -2.94 ± 0.18 |
| CCCAAGCAAUAUUACGUCGA | -3.92 ± 0.26 | -2.81 ± 0.2 |
| CCUGAGCAAUAUUACGUAUA | -3.53 ± 0.23 | -2.51 ± 0.24 |
| AUGCAGCAAUAUUACGAAAG | -2.87 ± 0.23 | -3.15 ± 0.4 |
| UGACAGCAAUAUUACGGUAU | -3.58 ± 0.2 | -2.45 ± 0.21 |
| CGGAAGCAAUAUUACGGUAG | -0.312 ± 0.072 | -0.214 ± 0.096 |

| Sequence | self-splicing fitness (ln) (30 °C) | self-splicing fitness (ln) (37 °C) |
| --- | --- | --- |
| CUGUAGCAAUAUUACGCCGC | -2.54 ± 0.41 | -1.08 ± 0.47 |
| CGGGAGCAAUAUUACGCUUG | – | -2.34 ± 0.31 |
| GUGAAGCAAUAUUACGCGAA | -1.56 ± 0.11 | -0.479 ± 0.12 |
| UGCUAGCAAUAUUACGGUAC | – | -0.887 ± 0.39 |
| UGGCAGCAAUAUUACGAGCG | -0.577 ± 0.12 | 0.0222 ± 0.17 |
| GGCUAGCAAUAUUACGUAAA | -0.62 ± 0.084 | -0.198 ± 0.1 |
| GCUCAGCAAUAUUACGCUUA | -1.4 ± 0.054 | -0.165 ± 0.06 |
| CCCAAGCAAUAUUACGCGCA | -4.14 ± 0.35 | -2.72 ± 0.21 |
| UAUGAGCAAUAUUACGGGGA | -2.94 ± 0.39 | – |
| GGCGAGCAAUAUUACGAGAG | -3.79 ± 0.39 | -2.54 ± 0.33 |
| CUACAGCAAUAUUACGCACU | -3.52 ± 0.21 | -3.03 ± 0.4 |
| UCUAAGCAAUAUUACGAAAA | – | -1.34 ± 0.29 |
| GUGUAGCAAUAUUACGCUGC | -3.26 ± 0.27 | -1.08 ± 0.23 |
| ACCAAGCAAUAUUACGCAUC | -3.18 ± 0.11 | -1.74 ± 0.11 |
| AUCUAGCAAUAUUACGCGCA | -0.448 ± 0.1 | -0.485 ± 0.11 |
| UCUUAGCAAUAUUACGAGAG | -2.35 ± 0.26 | -0.861 ± 0.16 |
| GACAAGCAAUAUUACGGGCA | -0.702 ± 0.049 | -0.0944 ± 0.056 |
| UAUAAGCAAUAUUACGUGAU | -1.89 ± 0.13 | -1.45 ± 0.17 |
| AGGAAGCAAUAUUACGGCGU | -0.156 ± 0.1 | -0.118 ± 0.11 |
| CUAGAGCAAUAUUACGUCUA | -1.15 ± 0.12 | -0.248 ± 0.18 |
| CAGAAGCAAUAUUACGUAUG | -4.42 ± 0.16 | -2.56 ± 0.13 |
| CAGCAGCAAUAUUACGGGGA | -1.98 ± 0.18 | -2.22 ± 0.19 |
| AGGCAGCAAUAUUACGCACC | -0.268 ± 0.1 | -0.0601 ± 0.15 |
| GAUUAGCAAUAUUACGCUUA | -1.22 ± 0.13 | -0.752 ± 0.095 |
| AUCUAGCAAUAUUACGCCGA | -0.962 ± 0.17 | -0.198 ± 0.19 |

From the supplement of paper PMC7877785
